Experimental data as given in PMC6811625, “Protein folding while chaperone bound is dependent on weak interactions” (Nature Communications, 2019).

B1: SpyQ100L (natural protein, E. coli, UniProt P77754 24-161, looked up)
chain: ADTTTAAPADAKPMMHHKGKFGPHQDMMFKDLNLTDAQKQQIREIMKGQRDQMKRPPLEERRAMHDIIASDTFDKVKAEAQIAKMEEQRKANMLAHMETLNKIYNILTPEQKKQFNANFEKRLTERPAAKGKMPATAE
notes: Spy of E. coli with Q100L; also called Spy variant Q100L; source: E. coli BL21 (DE3), purified (Ni-His Trap, HiTrap Q, Superdex 75); not shown: His, N-terminal, cleaved; SUMO, N-terminal, cleaved
B2: wild-type Spy (natural protein, E. coli, UniProt P77754 24-161, looked up)
chain: ADTTTAAPADAKPMMHHKGKFGPHQDMMFKDLNLTDAQKQQIREIMKGQRDQMKRPPLEERRAMHDIIASDTFDKVKAEAQIAKMEEQRKANMLAHMETQNKIYNILTPEQKKQFNANFEKRLTERPAAKGKMPATAE
notes: ATP-independent periplasmic chaperone Spy of E. coli; also called SpyWT; Spy dimer; source: E. coli BL21 (DE3), purified (Ni-His Trap, HiTrap Q, Superdex 75); not shown: His, N-terminal, cleaved; SUMO, N-terminal, cleaved
B3: SpyH96L (natural protein, E. coli, UniProt P77754 24-161, looked up)
chain: ADTTTAAPADAKPMMHHKGKFGPHQDMMFKDLNLTDAQKQQIREIMKGQRDQMKRPPLEERRAMHDIIASDTFDKVKAEAQIAKMEEQRKANMLALMETQNKIYNILTPEQKKQFNANFEKRLTERPAAKGKMPATAE
notes: Spy of E. coli with H96L; also called Spy variant H96L; source: E. coli BL21 (DE3), purified (Ni-His Trap, HiTrap Q, Superdex 75); not shown: His, N-terminal, cleaved; SUMO, N-terminal, cleaved
B4: wild-type Gallus gallus Fyn SH3 domain (T85-D142) (domain or fragment)
chain: not shown
notes: 7 residues added to the N terminus of the domain; Tyrosine-protein kinase Fyn, Gallus gallus, SH3 domain, residues T85-D142; a single arginine added to the C terminus of the domain; The same protein was measured native and unfolded (diluted from 9.5 M urea); the quantity of each row says which state; Primer 1 has a BamHI site (GGA TCC, Gly-Ser) before GAMVQIS, so further residues may remain after …

Legend:
Conditions in all cases: both partners purified
[1] = biological target: B4; experiment: stopped-flow tryptophan fluorescence kinetics with global fitting; KinTek SF-300X, 25 °C; HN buffer, 0.83 M urea after mixing; 4.8 μM SH3, refolded from 9.5 M urea or native, mixed 1:10.5 with varied Spy (concentrations as dimer); global fit (KinTek Explorer) to the mechanism that allows folding while bound; k-3 fixed at 1000 s^-1
[2] = biological target: B2; experiment: ITC; MicroCal iTC200, 25 °C; HN buffer (40 mM HEPES pH 7.5, 50 mM NaCl) with 0.83 M urea; 2.4 mM SH3 in the syringe titrated into 100 μM Spy or Spy variant in the cell; one-site model; native SH3
[3] = biological target: B2; experiment: as above; remark: listed apart in the source
[4] = biological target: B3; experiment: as above
[5] = biological target: B1; experiment: as above

| Kd (native SH3) [1] | Kd (unfolded SH3) [1] | k2 (association, unfolded SH3) [1] | k3 (association, native SH3) [1] | k-2 (dissociation, unfolded SH3) [1] | stoichiometry N [2] | Kd [3] | Kd [4] | Kd [5] | Binder |
| --- | --- | --- | --- | --- | --- | --- | --- | --- | --- |
| 17 ± 1 µM | 0.04 ± 0.003 µM | 1.71e+08 ± 8e+06 M⁻¹ s⁻¹ | 6e+07 ± 2e+06 M⁻¹ s⁻¹ | 6.8 ± 0.3 s⁻¹ |  |  |  |  | B1 |
| 83 ± 55 µM | 2.9 ± 0.3 µM | 1.4e+07 ± 1e+06 M⁻¹ s⁻¹ | 1.2e+07 ± 8e+06 M⁻¹ s⁻¹ | 39 ± 3 s⁻¹ |  |  |  |  | B2 |
| 11 ± 1 µM | 0.76 ± 0.05 µM | 2.3e+07 ± 1e+06 M⁻¹ s⁻¹ | 9.1e+07 ± 1e+07 M⁻¹ s⁻¹ | 17.4 ± 0.7 s⁻¹ |  |  |  |  | B3 |
|  |  |  |  |  | 1 | 50 ± 6 µM | 71 ± 19 µM | 107 ± 25 µM | B4 |
